Source: US20220220204A1
Blank lines part the entries; values can stand above or below the substance they belong to.

Tests used:
[1] = biological target: human LAG-3 (LAG-3 effector Jurkat T cells) (human) (UniProt P18627); assay: cell-based or functional assay
[2] = biological target: human PD-L1 (PD-L1 aAPC/CHO-K1 cells) (human) (UniProt Q9NZQ7); assay: cell-based or functional assay
[3] = biological target: PD-L1 (UniProt Q9NZQ7); assay: FACS binding
Sequence of PD-L1 (Q9NZQ7 19-290): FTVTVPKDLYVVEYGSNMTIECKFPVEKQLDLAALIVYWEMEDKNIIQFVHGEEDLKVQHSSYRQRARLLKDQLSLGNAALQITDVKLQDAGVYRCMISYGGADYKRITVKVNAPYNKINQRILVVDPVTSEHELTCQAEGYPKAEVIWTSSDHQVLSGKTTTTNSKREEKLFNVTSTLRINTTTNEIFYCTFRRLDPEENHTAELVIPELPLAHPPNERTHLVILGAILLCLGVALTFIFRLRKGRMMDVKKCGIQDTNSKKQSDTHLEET

Sequence of human LAG-3 (LAG-3 effector Jurkat T cells) (human) (P18627 23-525): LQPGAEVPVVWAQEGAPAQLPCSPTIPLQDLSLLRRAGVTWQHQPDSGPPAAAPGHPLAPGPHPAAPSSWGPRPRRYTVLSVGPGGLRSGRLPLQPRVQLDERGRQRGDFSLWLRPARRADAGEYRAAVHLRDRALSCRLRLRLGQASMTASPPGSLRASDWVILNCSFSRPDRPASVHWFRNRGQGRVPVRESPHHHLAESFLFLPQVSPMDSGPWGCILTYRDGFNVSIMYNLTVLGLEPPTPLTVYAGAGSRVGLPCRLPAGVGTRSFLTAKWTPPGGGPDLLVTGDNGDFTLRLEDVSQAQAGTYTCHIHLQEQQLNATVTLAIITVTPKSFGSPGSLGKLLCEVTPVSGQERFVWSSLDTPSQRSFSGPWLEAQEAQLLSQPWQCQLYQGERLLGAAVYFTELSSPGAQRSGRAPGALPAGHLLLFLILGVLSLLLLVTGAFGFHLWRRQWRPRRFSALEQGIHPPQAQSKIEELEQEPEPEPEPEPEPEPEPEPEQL
Sequence of human PD-L1 (PD-L1 aAPC/CHO-K1 cells) (human) (Q9NZQ7 19-290): as the sequence (Q9NZQ7 19-290) above

Bottom (LAG-3 blockade bioassay) [1]: 312000
Log EC50 (LAG-3 blockade bioassay) [1]: 0.841
Top (LAG-3 blockade bioassay) [1]: 918000
Substance: 25F7 biosimilar (antibody)

Bottom (PD-1/PD-L1 blockade bioassay) [2]: 28700
EC50 (PD-1/PD-L1 blockade bioassay) [2]: 0.342
Log EC50 (PD-1/PD-L1 blockade bioassay) [2]: -0.467
Top (PD-1/PD-L1 blockade bioassay) [2]: 117000
Substance: Tecentriq biosimilar (antibody)

EC50 [3]: 8.88 pM
Substance: human IgG
